Paper PMC5973702

Molecular target: human voltage-gated K+ channel Kv1.3 with C-terminal FLAG/10Xhis tag, expressed in Tetrahymena thermophila (human) (UniProt P22001)
Assay: fluorescence polarisation

Chain of UniProt P22001 (P22001 whole entry): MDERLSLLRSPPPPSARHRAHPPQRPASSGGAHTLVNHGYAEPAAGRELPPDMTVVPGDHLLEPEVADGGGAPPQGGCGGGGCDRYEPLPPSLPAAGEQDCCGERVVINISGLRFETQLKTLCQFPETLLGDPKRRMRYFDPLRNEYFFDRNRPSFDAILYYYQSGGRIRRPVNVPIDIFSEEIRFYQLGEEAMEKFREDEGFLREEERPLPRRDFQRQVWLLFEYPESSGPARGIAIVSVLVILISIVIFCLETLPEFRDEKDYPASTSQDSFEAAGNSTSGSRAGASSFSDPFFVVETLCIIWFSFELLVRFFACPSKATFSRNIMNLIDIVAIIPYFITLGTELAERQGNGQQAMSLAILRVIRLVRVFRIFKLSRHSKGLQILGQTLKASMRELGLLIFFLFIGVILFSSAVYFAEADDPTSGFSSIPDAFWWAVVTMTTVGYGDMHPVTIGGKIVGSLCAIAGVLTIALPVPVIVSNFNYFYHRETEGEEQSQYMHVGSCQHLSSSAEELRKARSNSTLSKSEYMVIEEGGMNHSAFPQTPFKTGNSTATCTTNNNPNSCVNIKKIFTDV

Substance: FAM-ShK (Fluorescein 6-carbonyl-labelled Stichodactyla toxin) (peptide)
- Kd: 11.5 nM
